The series deals with the molecule itself. The experiment in a line: native gel or EMSA. For orientation: Mobility shift assays separate free from complexed probe on a gel.

B1: Full length wild-type LpCopA (copper-transporting P1B-1-ATPase from Legionella pneumophila, Lpg1024) (natural protein)
chain: not shown
On to B1, for which the stoichiometry N (as a rule, the number of molecules, sites or subunits per partner or assembly) was determined as 2.

These data come from publication PMC11970713 (The FEBS journal, 2024).
